Data on one molecule can be found in publication PMC5227068.

The target of assay [1] is recombinant human CD36 (human), P16671. Put plainly: BLI; Octet Qke; hisCD36 immobilised on Ni-NTA biosensors, CIDR domain in kinetics buffer (PBS, 0.02% Tween-20, 100 ug/ml BSA, 0.005% sodium azide); association 600 or 900 s, dissociation 300 to 600 s; double-reference subtracted data fitted to a 1:1 binding model.
The target is the same in assay [2]. The assay can be described thus: BLI; Octet Qke; hisCD36 immobilised on Ni-NTA biosensors, CIDR domains in solution; kinetics buffer (PBS, 0.02% Tween-20, 100 μg/ml bovine serum albumin, 0.005% sodium azide); association 600 or 900 s, dissociation 300 to 600 s; 1:1 fit.

Chain of recombinant human CD36 (human), P16671 (P16671 whole entry, the tested form may be a part): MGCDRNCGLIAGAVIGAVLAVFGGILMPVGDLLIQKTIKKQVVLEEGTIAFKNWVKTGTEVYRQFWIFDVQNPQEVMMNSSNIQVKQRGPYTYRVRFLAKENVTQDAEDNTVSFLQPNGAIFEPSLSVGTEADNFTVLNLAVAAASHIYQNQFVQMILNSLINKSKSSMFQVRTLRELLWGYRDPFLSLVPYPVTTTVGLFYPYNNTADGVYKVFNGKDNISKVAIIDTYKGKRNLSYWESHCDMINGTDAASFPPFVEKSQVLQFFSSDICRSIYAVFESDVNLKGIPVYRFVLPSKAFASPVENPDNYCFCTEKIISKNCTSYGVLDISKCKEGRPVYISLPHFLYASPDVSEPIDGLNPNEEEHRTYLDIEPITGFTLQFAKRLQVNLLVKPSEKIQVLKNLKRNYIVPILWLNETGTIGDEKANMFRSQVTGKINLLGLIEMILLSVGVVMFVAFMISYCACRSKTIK

B1: P. reichenowi var85 CIDRα5 (domain or fragment)
chain: PECGVVRNGGTFQKNDEKEGDCSGKNEEYKPPEGVTEHDINFLYSGEGHEDMTKKLSGFCKKPEDKKGTRNEQWKCYYEKAENNMCKMTNKGANDNEHAKMMSFNDFFNFWVSHLLTDTINWRKELNRCIKASKSETCEKKCNKNCKCFQKWIEKKKVEWEEVKDQYDEQKDMDIFNPYWILEYDLEEQLLPIMEKNNSDLELIGKMKEIIGKNYKNKELKRTDVNAIDILLKHELKDATTCVENDPQENC
modifications: not checked
For the molecule B1, in assay [1], the koff turned out to be 3.42e-05 s⁻¹ and the kon worked out at 19800 M⁻¹ s⁻¹. Moreover, the Kd in assay [2] turned out to be 1.7 nM.
